The record followed here is patent publication US20020155533A1 (Takeda / Millennium, published 2002).

“And” between values parts separate entries of the source, which are not always exact repeats. Equal values may be shown once. Where no end group is shown, it is not given here.

In test [1] the target is bovine PACAP receptor protein from bovine cerebrum (bovine) (UniProt Q29627). Kind of test: radioligand.
For test [2] the target is unchanged. Kind of test: saturation binding experiment; fraction: Micro hydroxyapatite.
Test [3] has the same target. Description: saturation binding experiment; fraction: Gel filtration (final purified sample). A general note: Size exclusion chromatography separates by hydrodynamic size, large species first.
For test [4] the target is unchanged. Description: saturation binding experiment; fraction: Solubilized product.
Test [5] shares this target. Kind of test: saturation binding experiment; fraction: Membrane fraction.
For test [6] the target is unchanged. Kind of test: saturation binding experiment; fraction: Hydroxyapatite.
Test [7] shares this target. Kind of test: saturation binding experiment; fraction: Avidin-agarose.
The target in test [8] is T1, rat PACAP receptor protein Type I-B (pRPR4-B, derived from pRPACAPR12), expressed in CHO or Sf9 cells (rat, UniProt P32215 20-523).
T1 construct: also called pRPR4-B-introduced CHO cells; clone B17
T1 sequence: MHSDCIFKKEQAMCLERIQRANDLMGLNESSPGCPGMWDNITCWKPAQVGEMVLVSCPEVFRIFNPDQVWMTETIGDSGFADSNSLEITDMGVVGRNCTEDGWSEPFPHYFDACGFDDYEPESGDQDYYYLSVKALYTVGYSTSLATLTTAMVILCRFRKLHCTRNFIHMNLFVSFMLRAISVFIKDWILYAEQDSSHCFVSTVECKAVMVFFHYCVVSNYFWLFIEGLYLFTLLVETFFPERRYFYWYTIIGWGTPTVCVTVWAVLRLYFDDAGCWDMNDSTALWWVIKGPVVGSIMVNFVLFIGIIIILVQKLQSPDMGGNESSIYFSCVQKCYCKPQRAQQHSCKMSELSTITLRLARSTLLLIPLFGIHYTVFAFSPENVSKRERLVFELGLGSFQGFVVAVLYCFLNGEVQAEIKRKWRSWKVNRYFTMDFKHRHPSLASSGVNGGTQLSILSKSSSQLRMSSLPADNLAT
Description: 100 pM [125I]-PACAP27 on whole CHO cells, gamma counting (FIG. 39).
Description: (§2) The cells were incubated until they covered the bottom surface of the tissue culture plates completely. […] The cells were washed twice with a buffer for the binding experiment [Hank's solution (pH 7.4) containing 5 mM HEPES, 5% CRAPS and 0.1% BSA]. […] After incubation at 37° C. for 1 hour, the cells washed three times with the buffer for the binding experiment were dissolved with 1 ml of 0.5 N NaOH and 0.1% SDS for each well, and the radioactivity contained therein was measured with a γ-counter.

In test [9] the target is T2, rat PACAP receptor protein Type I-A (pRPR3-A, derived from pRPACAPR46-5), expressed in CHO or Sf9 cells (rat, UniProt P32215 20-523).
T2 construct: also called pRPR3-A-introduced CHO cells; clone A12
T2 sequence: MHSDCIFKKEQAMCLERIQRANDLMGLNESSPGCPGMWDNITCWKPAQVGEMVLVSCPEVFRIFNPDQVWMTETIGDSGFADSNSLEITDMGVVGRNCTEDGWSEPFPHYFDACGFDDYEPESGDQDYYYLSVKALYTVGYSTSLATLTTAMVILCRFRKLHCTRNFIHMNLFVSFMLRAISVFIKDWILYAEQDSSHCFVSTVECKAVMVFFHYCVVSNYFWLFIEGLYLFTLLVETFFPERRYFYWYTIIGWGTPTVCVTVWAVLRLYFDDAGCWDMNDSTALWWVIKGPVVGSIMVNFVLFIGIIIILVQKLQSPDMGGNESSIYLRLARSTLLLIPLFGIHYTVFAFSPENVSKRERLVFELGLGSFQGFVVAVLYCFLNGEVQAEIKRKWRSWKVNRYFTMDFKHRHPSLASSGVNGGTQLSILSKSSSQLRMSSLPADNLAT
The description is as above.
Description: as §2

Test [10] has as its target bovine PACAP receptor protein from bovine cerebrum (bovine) (UniProt Q29627). Description: saturation binding experiment; fraction: Ion exchange.
Test [11] concerns the target T3, bovine PACAP receptor protein Type I-A encoded by pBPR-T, expressed in CHO cells (UniProt Q29627 38-513).
T3 chain: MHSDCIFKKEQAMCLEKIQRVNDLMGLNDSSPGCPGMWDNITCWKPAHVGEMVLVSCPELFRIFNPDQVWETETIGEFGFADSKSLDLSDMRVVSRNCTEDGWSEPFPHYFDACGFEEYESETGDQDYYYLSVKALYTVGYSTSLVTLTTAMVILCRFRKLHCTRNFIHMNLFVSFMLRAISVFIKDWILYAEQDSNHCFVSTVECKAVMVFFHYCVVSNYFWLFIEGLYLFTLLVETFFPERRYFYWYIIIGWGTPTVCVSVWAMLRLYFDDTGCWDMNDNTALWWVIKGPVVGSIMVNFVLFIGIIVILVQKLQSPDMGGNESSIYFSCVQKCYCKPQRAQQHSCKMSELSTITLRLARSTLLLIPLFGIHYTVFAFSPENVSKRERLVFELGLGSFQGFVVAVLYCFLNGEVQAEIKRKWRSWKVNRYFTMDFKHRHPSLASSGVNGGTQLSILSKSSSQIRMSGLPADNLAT
Kind of test: radioligand.

Test [12] has as its target T1, rat PACAP receptor protein Type I-B …. Description: competition with 100 pM [125I]-PACAP27, membrane fraction of pRPR4-B-introduced CHO cells (FIG. 40B). The protocol: (§1) The pRPR3-A-introduced and pRPR4-B-introduced CHO cells obtained in (2) described above were each disrupted in sodium carbonate buffer containing 1 mM EDTA, 0.5 mM PMSF, 20 μg/ml leupeptin, 4 μg/ml E-64 and 1 μg/ml pepstatin with a Polytron homogenizer (Kinematica) to prepare membrane fractions. Using the membrane fractions, complex binding experiments were conducted. […] The reaction was conducted at 25° C. for 1 hour, and bound ligands were separated from free ligands by filtration through a filter. […] The amount of bound ligands was measured with a γ-counter.

Test [13] has as its target T2, rat PACAP receptor protein Type I-A …. Kind of test: competition with 100 pM [125I]-PACAP27, membrane fraction of pRPR3-A-introduced CHO cells (FIG. 40A). As for the experimental part:
as §1

As for [^125I]-PACAP27, the Kd in [1] is 0.029 nM and 0.03 nM.

B1: [^125I]-PACAP27 (peptide)
peptide: HSDGIFTDSYSRYRKQMAVKKYLAAVL-NH2
modifications: also: 125I label on one Tyr, which one not given here
notes: also called radioactive iodine-labelled PACAP27
For the molecule B1, the Total activity (maximum binding of [125I]PACAP27) in test [2] is 1720 pmol; in [3], 671 pmol; in test [4] it was 4560 pmol; in test [5], 8120 pmol; in [6], 3350 pmol; in [7] it was 2040 pmol. Further, the Total activity (maximum binding of [125I]PACAP27) in test [10] was found to be 4700 pmol. Besides, the Specific activity in [3] is 16000 pmol/mg; in test [4], 1.9 pmol/mg; in [5] it was 1.3 pmol/mg; in test [6], 25 pmol/mg; in [10], 9.9 pmol/mg. The binding result in test [8] and in [9] was “binds” in each case. Moreover, the dissociation constant (Kd) in [11] came out at 0.103 nM.

B2: PACAP27 (peptide)
peptide: HSDGIFTDSYSRYRKQMAVKKYLAAVL-NH2
notes: also called unlabeled PACAP27; cold PACAP27
For B2, the binding result in test [12] and in test [13] was “binds” in each case.

Broadly, the Kd is the concentration at which binding is half-saturated. A high value points to weaker binding.
